Test results published in publication PMC8184831.

System: SOX2 (hSOX2) (human)
Test: EMSA
Details: Plasmid EMSA: 60 mM KCl, 12 mM Hepes pH 7.9, 2 mM MgCl2, 1 mM DTT, 0.12 mM EDTA, 12% glycerol, 0.01% NP40, 10 ng/uL DNA, 15 min 30 C; 0.8% agarose 0.5x TBE. …

Substance | binding signal (fold higher Kd than specific site) | Kd [nM]
SOX2 non-specific-site EMSA probe | 30 | –
SOX2 specific-site EMSA probe | – | 2
